Data reported in US6946133.

Target: HLA class I-A2 molecule (human) (UniProt P04439)
Test: T2 binding assay, peptide 50 µg/ml for 24 h, anti-HLA-A2 mAb, flow cytometry; cut off for positivity 100

T2 binding, relative fluorescence (mean intensity): 51.4
Substance: PSA [42-51] (from UniProt P07288 66-75) (peptide)
